Results from US20260256941A1.

Biological target: PD-1 receptor on the surface of T cells (human) (UniProt Q15116)
Assay: cell-based or functional assay

Chain of UniProt Q15116 (Q15116 25-288): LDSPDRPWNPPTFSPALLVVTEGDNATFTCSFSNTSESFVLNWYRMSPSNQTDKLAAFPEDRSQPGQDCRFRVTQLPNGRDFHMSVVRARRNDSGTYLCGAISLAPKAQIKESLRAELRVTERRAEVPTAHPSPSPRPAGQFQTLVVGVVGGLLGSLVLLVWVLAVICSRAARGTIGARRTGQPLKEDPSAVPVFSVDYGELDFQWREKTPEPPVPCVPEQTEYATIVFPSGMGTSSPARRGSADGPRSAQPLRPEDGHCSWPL

PD-L1 traditional exosome (PD-L1 displayed by traditional engineering methods) (ligand)
percentage of activated (CD8+CD25+) T cells, flow cytometry; PD-L1 traditional exosome; unmodified exosome 34.1%: 22.5%
